Assay results reported in PMC7058361, “Functional interactions between posttranslationally modified amino acids of methyl-coenzyme M reductase in Methanosarcina acetivorans” (PLoS Biology, 2020).

B1: alpha subunit of methyl-coenzyme M reductase (McrA) from wild-type M. acetivorans, fully modified (natural protein, Methanosarcina acetivorans, UniProt Q8THH1 1-570, looked up)
chain: MAADIFAKFKKSMEVKFTQEYGSNKQAGGDITGKTEKFLRLGPEQDARKQEMIKAGKEIAEKRGIAFYNPMMHMGAPLGQRAITPYTISGTDIVAEPDDLHYVNNAAMQQMWDDIRRTCIVGLDMAHETLEKRLGKEVTPETINHYLETLNHAMPGAAVVQEMMVETHPALVDDCYVKIFTGDDELADEIDKQYVINVNKMFSEEQAAQIKASIGKTTWQAIHIPTIVSRTTDGAQTSRWAAMQIGMSFISAYAMCAGEAAVADLSFAAKHAALVSMGEMLPARRARGPNEPGGLSFGHLSDIVQTSRVSKDPAKIALEVVGAGCMLYDQIWLGSYMSGGVGFTQYATAAYTDDILDNNTYYDVDYINDKYNGAANLGTDNKVKATLDVVKDIATESTLYGIETYEKFPTALEDHFGGSQRATVLAAASGVACALATGNANAGLSGWYLSMYVHKEAWGRLGFFGFDLQDQCGATNVLSYQGDEGLPDELRGPNYPNYAMNVGHQGGYAGIAQAAHSGRGDAFTVNPLLKVCFADELMPFNFAEPRREFGRGAIREFMPAGERSLVIPAK
modifications: N1-methylhistidine at His271; 5-(S)-methylarginine at Arg285; thioglycine at Gly465; didehydroaspartate at Asp470; S-methylcysteine at Cys472
notes: McrA, alpha subunit of methyl-coenzyme M reductase, Methanosarcina acetivorans; chromosomally encoded; Two copies stand in the α2β2γ2 complex; also called α subunit of MCR; α-subunit; source: endogenous, M. acetivorans strain with TAP-tagged mcrG
B2: McrA from the ΔmcmAΔycaO-tfuA double mutant of M. acetivorans (lacks S-methylcysteine and thioglycine) (natural protein, Methanosarcina acetivorans, UniProt Q8THH1 1-570, looked up)
chain: B1 chain
modifications: N1-methylhistidine at His271; 5-(S)-methylarginine at Arg285; didehydroaspartate at Asp470; Gly465 and Cys472 unmodified
notes: McrA, alpha subunit of methyl-coenzyme M reductase, Methanosarcina acetivorans; chromosomally encoded; differs only in the posttranslational modifications; also called McrA from ΔycaO-tfuA/ΔmcmA; source: endogenous, M. acetivorans ΔmcmAΔycaO-tfuA strain with TAP-tagged mcrG
B3: McrA from the ΔmamAΔmcmAΔycaO-tfuA triple mutant of M. acetivorans (lacks 5-(S)-methylarginine, S-methylcysteine and thioglycine) (natural protein, Methanosarcina acetivorans, UniProt Q8THH1 1-570, looked up)
chain: B1 chain
modifications: N1-methylhistidine at His271; didehydroaspartate at Asp470; Arg285, Gly465 and Cys472 unmodified
notes: McrA, alpha subunit of methyl-coenzyme M reductase, Methanosarcina acetivorans; chromosomally encoded; differs only in the posttranslational modifications; also called McrA from the triple-deletion mutant; source: endogenous, M. acetivorans ΔmamAΔmcmAΔycaO-tfuA strain with TAP-tagged mcrG
B4: McrA from the ΔycaO-tfuA mutant of M. acetivorans (lacks thioglycine) (natural protein, Methanosarcina acetivorans, UniProt Q8THH1 1-570, looked up)
chain: B1 chain
modifications: N1-methylhistidine at His271; 5-(S)-methylarginine at Arg285; didehydroaspartate at Asp470; S-methylcysteine at Cys472; Gly465 unmodified
notes: McrA, alpha subunit of methyl-coenzyme M reductase, Methanosarcina acetivorans; chromosomally encoded; differs only in the posttranslational modifications; also called McrA with unmodified Gly465; source: endogenous, M. acetivorans ΔycaO-tfuA strain with TAP-tagged mcrG
B5: McrA from the ΔmcmA mutant of M. acetivorans (lacks S-methylcysteine) (natural protein, Methanosarcina acetivorans, UniProt Q8THH1 1-570, looked up)
chain: B1 chain
modifications: N1-methylhistidine at His271; 5-(S)-methylarginine at Arg285; thioglycine at Gly465; didehydroaspartate at Asp470; Cys472 unmodified
notes: McrA, alpha subunit of methyl-coenzyme M reductase, Methanosarcina acetivorans; chromosomally encoded; differs only in the posttranslational modifications; also called McrA with unmodified Cys472; source: endogenous, M. acetivorans ΔmcmA strain with TAP-tagged mcrG
B6: McrA from the ΔmamAΔycaO-tfuA double mutant of M. acetivorans (lacks 5-(S)-methylarginine and thioglycine) (natural protein, Methanosarcina acetivorans, UniProt Q8THH1 1-570, looked up)
chain: B1 chain
modifications: N1-methylhistidine at His271; didehydroaspartate at Asp470; S-methylcysteine at Cys472; Arg285 and Gly465 unmodified
notes: McrA, alpha subunit of methyl-coenzyme M reductase, Methanosarcina acetivorans; chromosomally encoded; differs only in the posttranslational modifications; source: endogenous, M. acetivorans ΔmamAΔycaO-tfuA strain with TAP-tagged mcrG
B7: McrA from the ΔmamA mutant of M. acetivorans (lacks 5-(S)-methylarginine) (natural protein, Methanosarcina acetivorans, UniProt Q8THH1 1-570, looked up)
chain: B1 chain
modifications: N1-methylhistidine at His271; thioglycine at Gly465; didehydroaspartate at Asp470; S-methylcysteine at Cys472; Arg285 unmodified
notes: McrA, alpha subunit of methyl-coenzyme M reductase, Methanosarcina acetivorans; chromosomally encoded; differs only in the posttranslational modifications; also called McrA with unmodified Arg285; source: endogenous, M. acetivorans ΔmamA strain with TAP-tagged mcrG
B8: McrA from the ΔmamAΔmcmA double mutant of M. acetivorans (lacks 5-(S)-methylarginine and S-methylcysteine) (natural protein, Methanosarcina acetivorans, UniProt Q8THH1 1-570, looked up)
chain: B1 chain
modifications: N1-methylhistidine at His271; thioglycine at Gly465; didehydroaspartate at Asp470; Arg285 and Cys472 unmodified
notes: McrA, alpha subunit of methyl-coenzyme M reductase, Methanosarcina acetivorans; chromosomally encoded; differs only in the posttranslational modifications; source: endogenous, M. acetivorans ΔmamAΔmcmA strain with TAP-tagged mcrG

Key:
[1] = target: the molecule itself; assay: crystal structure; wild-type TAP-tagged MCR complex affinity-purified aerobically from M. acetivorans, inactive Ni(II) form; 25 mg/ml, sitting drops, 0.2 M ammonium acetate, 0.1 M sodium acetate pH 4, 15% PEG 4000, room temperature; 1.65 Å
[2] = target: the molecule itself; assay: crystal structure; TAP-tagged MCR variants affinity-purified aerobically from the modification mutants, inactive Ni(II) form; 3-30 mg/ml, hanging drops, same reservoir solution as the wild type; 1.9-2.3 Å

Protein | binding result [1] | binding result [2]
B1 | binds | 
B2 |  | binds
B3 |  | binds
B4 |  | binds
B5 |  | binds
B6 |  | binds
B7 |  | binds
B8 |  | binds
